Consider seven molecules from patent publication US20070131547A1.

Holding throughout (assay): cell-based or functional assay
For assay [1], the target named is T1, ecoISO-Dzip2 (xylose isomerase derived from Escherichia coli, Dzip2 association site fused at the C-terminal side) (Escherichia coli) (UniProt B1X8I1).
T1 sequence: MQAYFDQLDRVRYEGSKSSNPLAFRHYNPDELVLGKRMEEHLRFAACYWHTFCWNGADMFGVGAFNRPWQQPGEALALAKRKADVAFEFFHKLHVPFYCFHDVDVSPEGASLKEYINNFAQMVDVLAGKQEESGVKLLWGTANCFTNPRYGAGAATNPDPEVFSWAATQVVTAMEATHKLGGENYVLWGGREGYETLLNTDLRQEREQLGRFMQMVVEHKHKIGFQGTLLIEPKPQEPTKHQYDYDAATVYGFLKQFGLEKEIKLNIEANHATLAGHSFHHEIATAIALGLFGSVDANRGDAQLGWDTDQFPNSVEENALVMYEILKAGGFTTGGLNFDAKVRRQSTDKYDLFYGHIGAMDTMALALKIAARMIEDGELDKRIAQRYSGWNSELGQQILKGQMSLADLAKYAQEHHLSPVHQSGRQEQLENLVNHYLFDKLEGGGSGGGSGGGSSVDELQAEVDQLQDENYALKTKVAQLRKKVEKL

Assay [2] addresses ppuDp-Jun (diaphorase derived from Pseudomonas putida, Jun association site fused at the C-terminal side) (Pseudomonas putida).
Assay [3] deals with goxDp-Dzip2 (diaphorase derived from Gluconobacter oxydans, Dzip2 association site fused at the C-terminal side) (Gluconobacter oxydans).
The target in assay [4] is T2, goxALDH-Dzip2 (aldehyde dehydrogenase derived from Gluconobacter oxydans, Dzip2 association site fused at the C-terminal side) (Gluconobacter oxydans).
T2 sequence: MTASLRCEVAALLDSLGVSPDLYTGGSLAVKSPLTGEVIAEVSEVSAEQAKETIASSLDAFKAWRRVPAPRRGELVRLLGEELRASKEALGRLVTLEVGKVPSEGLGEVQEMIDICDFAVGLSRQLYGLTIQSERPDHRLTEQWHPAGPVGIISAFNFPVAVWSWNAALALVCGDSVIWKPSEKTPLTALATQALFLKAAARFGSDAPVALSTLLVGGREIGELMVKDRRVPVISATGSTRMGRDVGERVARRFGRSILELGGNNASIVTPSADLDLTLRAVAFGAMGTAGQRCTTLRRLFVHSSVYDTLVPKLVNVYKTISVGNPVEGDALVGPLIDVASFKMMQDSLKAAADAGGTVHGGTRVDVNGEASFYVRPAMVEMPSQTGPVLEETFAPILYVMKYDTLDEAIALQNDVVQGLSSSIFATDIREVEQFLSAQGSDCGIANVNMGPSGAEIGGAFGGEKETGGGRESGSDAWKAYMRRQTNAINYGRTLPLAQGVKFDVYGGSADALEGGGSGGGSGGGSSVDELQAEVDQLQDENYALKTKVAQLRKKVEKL

The target of assay [5] is phoDp-Jun (diaphorase derived from Pyrococcus horikoshii, Jun association site fused at the C-terminal side) (Pyrococcus horikoshii).

B1: His-busGDH-Dzip1 (glucose dehydrogenase derived from Bacillus subtilis, His tag, Dzip1 association site fused at the C-terminal side) (enzyme)
chain: MGSSHHHHHHSQDPYPDLKGKVVAITGAASGLGKAMAIRFGKEQAKVVINYYSNKQDPNEVKEEVIKAGGEAVVVQGDVTKEEDVKNIVQTAIKEFGTLDIMINNAGLENPVPSHEMPLKDWDKVIGTNLTGAFLGSREAIKYFVENDIKGNVINMSSVHEVIPWPLFVHYAASKGGIKLMTETLALEYAPKGIRVNNIGPGAINTPINAEKFADPKQKADVESMIPMGYIGEPEEIAAVAAWLASKEASYVTGITLFADGGMTQYPSFQAGRGKLGGGSGGGSGGGSTVAQLEEKVKTLRAQNYELKSRVQRLREQVAQLA
Regarding B1, in assay [1], the maximum electric power (fructose fuel cell) was 101 µW/cm^2 and the shortcircuit current density (fructose fuel cell) came to 1110 µA/cm^2.

B2: His-sceADH-Fos (alcohol dehydrogenase derived from Saccharomyces cerevisiae, His tag, Fos association site fused at the C-terminal side) (enzyme)
chain: MGSSHHHHHHSQDPPSQVIPEKQKAIVFYETDGKLEYKDVTVPEPKPNEILVHVKYSGVCHSDLHAWHGDWPFQLKFPLIGGHEGAGVVVKLGSNVKGWKVGDFAGIKWLNGTCMSCEYCEVGNESQCPYLDGTGFTHDGTFQEYATADAVQAAHIPPNVNLAEVAPILCAGITVYKALKRANVIPGQWVTISGACGGLGSLAIQYALAMGYRVIGIDGGNAKRKLFEQLGGEIFIDFTEEKDIVGAIIKATNGGSHGVINVSVSEAAIEASTRYCRPNGTVVLVGMPAHAYCNSDVFNQVVKSISIVGSCVGNRADTREALDFFARGLIKSPIHLAGLSDVPEIFAKMEKGEIVGRYVVETSKKLGGGSGGGSLTDTLQAETDQLEDKKSALQTEIANLLKEKEKLEFILAAY
In assay [2], B2 registered a maximum electric power (alcohol fuel cell) of 80 µW/cm^2 and a shortcircuit current density (alcohol fuel cell) of 821 µA/cm^2.

B3: His-ppuMDH-Dzip1 (malic acid dehydrogenase derived from Pseudomonas putida, His tag, Dzip1 association site fused at the C-terminal side) (enzyme)
chain: MGSSHHHHHHSQDPSDLKTAALEYHAQPRPGKLSVELSKPTATARDLALAYSPGVAEPVREIGRDPELAYKYTGKGNLVAVISDGTAILGLGDLGPLASKPVMEGKGVLFKRFAGIDVFDIEVESESPQAFIDTVRRISITFGGINLEDIKAPECFEIERTLIEQCDIPVFHDDQHGTAIVTAAGMINALEIAGKKLEEAKIVCLGAGAAAISCMKLLVSMGAKVENIFMIDRSGVIHAGRDDLNQYKAQFAHATDKRTLADALDGADVFVGLSGPNLLSPEGLKSMAANPIVFACSNPDPEISPELAHATRNDVIMATGRSDYPNQVNNVLGFPFIFRGALDVRAKRINEEMKIAAAIALKDLAKLPVPKEVCEAYGVEGLEFGREYIIPKPLDARLITVVSDAVAKAAIESGVATLPYPKHYPLTSVDEVFNGKLGGGSGGGSGGGSTVAQLEEKVKTLRAQNYELKSRVQRLREQVAQLA
For B3, in assay [3], the maximum electric power (malic acid fuel cell) stood at 99 µW/cm^2 and the shortcircuit current density (malic acid fuel cell) stood at 1030 µA/cm^2.

B4: His-lplLDH-Dzip1 (lactic acid dehydrogenase derived from Lactobacillus plantarum, His tag, Dzip1 association site fused at the C-terminal side) (enzyme)
chain: MGSSHHHHHHSQDPSSMPNHQKVVLVGDGAVGSSYAFAMAQQGIAEEFVIVDVVKDRTKGDALDLEDAQAFTAPKKIYSGEYSDCKDADLVVITAGAPQKPGESRLDLVNKNLNILSSIVKPVVDSGFDGIFLVAANPVDILTYATWKFSGFPKDRVIGSGTSLDSSRLRVALGKQFNVDPRSVDAYIMGEHGDSEFAAYSTATIGTRPVRDVAKEQGVSDEDLAKLEDGVRNKAYDIINLKGATFYGIGTALMRISKAILRDENAVLPVGAYMDGQYGLNDIYIGTPAVIGGTGLKQIIESPLSADELKKMQDSAATLKKVLNDGLAELENKKLGGGSGGGSGGGSTVAQLEEKVKTLRAQNYELKSRVQRLREQVAQLA
Take B4: in assay [3], the maximum electric power (lactic acid fuel cell) came out at 121 µW/cm^2 and the shortcircuit current density (lactic acid fuel cell) worked out at 1330 µA/cm^2.

B5: His-sceADH-Dzip1 (alcohol dehydrogenase derived from Saccharomyces cerevisiae, His tag, Dzip1 association site fused at the C-terminal side) (enzyme)
chain: MGSSHHHHHHSQDPPSQVIPEKQKAIVFYETDGKLEYKDVTVPEPKPNEILVHVKYSGVCHSDLHAWHGDWPFQLKFPLIGGHEGAGVVVKLGSNVKGWKVGDFAGIKWLNGTCMSCEYCEVGNESQCPYLDGTGFTHDGTFQEYATADAVQAAHIPPNVNLAEVAPILCAGITVYKALKRANVIPGQWVTISGACGGLGSLAIQYALAMGYRVIGIDGGNAKRKLFEQLGGEIFIDFTEEKDIVGAIIKATNGGSHGVINVSVSEAAIEASTRYCRPNGTVVLVGMPAHAYCNSDVFNQVVKSISIVGSCVGNRADTREALDFFARGLIKSPIHLAGLSDVPEIFAKMEKGEIVGRYVVETSKKLGGGSGGGSGGGSTVAQLEEKVKTLRAQNYELKSRVQRLREQVAQLA
In assay [4], B5 returned a maximum electric power (alcohol fuel cell) of 173 µW/cm^2 and a shortcircuit current density (alcohol fuel cell) of 1620 µA/cm^2.

B6: His-pfuGDH-Fos (glucose dehydrogenase derived from Pyrococcus furiosus, His tag, Fos association site fused at the C-terminal side) (enzyme)
chain: MGSSHHHHHHSQDPNILITASSRGIGFNVAKELLKKGHRVVISSSNEKNLEKALEELKEYEKVYPIKADLSKKEEIKNMVEKAWEILGKIDVLVWNAPNVKCEPCMIHELDYEDWVEGALLHIIAPGYLTTLLLNKWLKNNTRGIIIYLSSASVLEPMPPLLLADSTRAGLIQLAKGISRAYGKRGIRAYTVLLGSFDTPGARENLRRLAEKRGVDPEELWKKEVIERTPLQRTGKWEELGELIEFLLSDNAEYMLGSTILFDGAMTRSVLLKLGGGSGGGSLTDTLQAETDQLEDKKSALQTEIANLLKEKEKLEFILAAY
In assay [5], B6 gave a maximum electric power (glucose fuel cell) of 126 µW/cm^2 and a shortcircuit current density (glucose fuel cell) of 1320 µA/cm^2.

B7: His-busGDH-Fos (glucose dehydrogenase derived from Bacillus subtilis, His tag, Fos association site fused at the C-terminal side) (enzyme)
chain: MGSSHHHHHHSQDPYPDLKGKVVAITGAASGLGKAMAIRFGKEQAKVVINYYSNKQDPNEVKEEVIKAGGEAVVVQGDVTKEEDVKNIVQTAIKEFGTLDIMINNAGLENPVPSHEMPLKDWDKVIGTNLTGAFLGSREAIKYFVENDIKGNVINMSSVHEVIPWPLFVHYAASKGGIKLMTETLALEYAPKGIRVNNIGPGAINTPINAEKFADPKQKADVESMIPMGYIGEPEEIAAVAAWLASKEASYVTGITLFADGGMTQYPSFQAGRGKLGGGSGGGSLTDTLQAETDQLEDKKSALQTEIANLLKEKEKLEFILAAY
In assay [2], B7 registered a maximum electric power (glucose fuel cell) of 101 µW/cm^2 and a shortcircuit current density (glucose fuel cell) of 988 µA/cm^2.
